# Measurements reported in patent US20140256912A1, “Stabilized Variant MAML Peptides and Uses Thereof” (PRESIDENT AND FELLOWS OF HARVARD COLLEGE, priority 2011, published 2014).
# Bridge positions count the residues as written; N and C are the ends. Square brackets hold non-standard residues; d marks the D form. Ends that are not written are not given here. dPhe(F5) = N[C@H](Cc1c(F)c(F)c(F)c(F)c1F)C(=O)O; 1Nal = N[C@@H](Cc1cccc2ccccc12)C(=O)O; 2Nal = N[C@@H](Cc1ccc2ccccc2c1)C(=O)O; S5 = C=CCCC[C@](C)(N)C(=O)O; I_N = not defined here; βAla = NCCC(=O)O
# Biological target: GST-RAMANK1-CSL complex (human) (UniProt P46531)
# Test: ALPHAscreen, 40 nM of all partners
row,signal-to-noise ratio [fold],Molecule
1,30,"synthetic, biotinylated dnMAML1 (Bio-sdnMAML1, residues 16-70) (from UniProt Q92585 16-70) (peptide)"

# Biological target: equimolar RAMANK1-CSL complex (human) (UniProt P46531)
# Test: SPR, preformed RAMANK1-CSL complex
row,fold decrease in affinity against s-dnMAML1 [fold],Molecule
1,10,"bio-nt-sdnMAML1 (residues 16-45), N-terminal helix of dnMAML1 (from UniProt Q92585 16-45) (peptide)"

# Biological target: NOTCH1-CSL transactivation complex in U2OS cells transfected with the truncated, constitutively activated ΔEGFΔLNR-NOTCH1 allele, P46531
# Test: cell-based or functional assay
"EC50, NOTCH1-driven CSL-luciferase dual reporter in U2OS cells [nM]","fold lower IC50 than SAHM1, NOTCH1 reporter gene assay [fold]",Molecule
10000,2,"Ac-W[βAla]ERWRRRI[S5]LFR[S5]HHSTCEARY (staple 10-14) [SAHM1-25 (E21-Y41 scaffold, L23W/C30F double mutant), Q92585 21-41]"
5000,4,Ac-W[βAla]ERWRRRI[S5]YFR[S5]HHST[dPhe(F5)]EAR[1Nal] (staple 10-14)

# Biological target: GST-RAMANK1-CSL complex (human) (UniProt P46531)
# Test: ALPHAscreen titration matrix, binding components in the range of 10-100 nM
row,ALPHAscreen luminescent signal (maximum) [c.p.s.],Molecule
1,45000,"synthetic, biotinylated dnMAML1 (Bio-sdnMAML1, residues 16-70) (from UniProt Q92585 16-70) (peptide)"

# Biological target: GST-RAMANK1-CSL complex (human) (UniProt P46531)
# Test: ALPHAscreen competition against Bio-sdnMAML1 binding to GST-RAMANK1-CSL
row,IC50 (read off the curve) [nM],Molecule
1,100,unlabeled Ac-sdnMAML1 peptide (from UniProt Q92585 16-70)

# Biological target: GST-RAMANK1-CSL complex (human) (UniProt P46531)
# Test: ALPHAscreen NTC competition: peptide titrated against Bio-sdnMAML1 binding to GST-RAMANK1-CSL; IC50 with 95% CI
row,IC50 [nM],Molecule
1,1700,Ac-W[βAla]ERLRRRI[S5]LCR[S5]HHST (staple 10-14) [AcW-SAHM1 (stapled MAML1 E21-T36 peptide with N-acetyl tryptophan cap)]
2,690,Ac-W[βAla]ERWRRRI[S5]FCR[S5]HHST (staple 10-14) [SAHM1-22]
3,540,Ac-W[βAla]ERWRRRL[S5]WVR[S5]HHST (staple 10-14) [SAHM1-38]
4,900,Ac-W[βAla]ERWRRRL[S5]WFR[S5]HHST (staple 10-14) [SAHM1-39]
5,460,Ac-W[βAla]ERWRRRL[S5]YCR[S5]HHST (staple 10-14) [SAHM1-47]
6,670,Ac-W[βAla]ERWRRRL[S5]YVR[S5]HHST (staple 10-14) [SAHM1-48]
7,250,Ac-W[βAla]ERWRRRI[S5]YCR[S5]HHST (staple 10-14) [SAHM1-55]
8,220,"Ac-W[βAla]ERWRRRI[S5]YFR[S5]HHST (staple 10-14) [SAHM1-56 (E21-T36 scaffold with L23W, L29Y and C30F)]"
9,6500,Ac-W[βAla]ELER[S5]HTF[S5]LHQR (staple 7-11) [SAHM5]
10,3700,Ac-W[βAla]RELRREI[S5]LCR[S5]HHST (staple 10-14) [SAHM1-D1]
11,1120,Ac-W[βAla]ERLRRRI[S5]LCR[S5]HHSTCEARY (staple 10-14; cysteine pairing not given here) [SAHM1-24 (stapled peptide of the E21-Y41 scaffold)]
12,290,"Ac-W[βAla]ERWRRRI[S5]LFR[S5]HHSTCEARY (staple 10-14) [SAHM1-25 (E21-Y41 scaffold, L23W/C30F double mutant)]"
13,850,Ac-W[βAla]ERWRRRI[S5]FCR[S5]HHSTCEARY (staple 10-14; cysteine pairing not given here) [SAHM1-26]
14,200,"Ac-W[βAla]ERWRRRI[S5]WCR[S5]HHSTCEARY (staple 10-14; cysteine pairing not given here) [SAHM1-27 (E21-Y41 scaffold, L23W/L29W double mutant)]"
15,560,Ac-W[βAla]ERLRRRI[S5]LCR[S5]HHSTFEARY (staple 10-14) [SAHM1-28]
16,340,Ac-W[βAla]ERWRRRL[S5]YCR[S5]HHSTCEARY (staple 10-14; cysteine pairing not given here) [SAHM1-59]
17,270,Ac-W[βAla]ERWRRRL[S5]YCR[S5]HHSTCEARYEAVSPERL (staple 10-14; cysteine pairing not given here) [SAHM1-76]
18,360,Ac-W[βAla]ERWRRRL[S5]YVR[S5]HHSTCEARYEAVSPERL (staple 10-14) [SAHM1-80]
19,370,Ac-W[βAla]ERWRRRL[S5]WCR[S5]HHSTCEARYEAVSPERL (staple 10-14; cysteine pairing not given here) [SAHM1-81]
20,1200,Ac-W[βAla]ERWRRRL[S5]LFR[S5]HHST[dPhe(F5)]EARY (staple 10-14) [SAHM1-35]
21,780,Ac-W[βAla]ERWRRRL[S5]WCR[S5]HHST[dPhe(F5)]EARY (staple 10-14) [SAHM1-43]
22,410,Ac-W[βAla]ERWRRRL[S5]LCR[S5]HHSTCEAR[2Nal] (staple 10-14; cysteine pairing not given here) [SAHM1-50]
23,360,Ac-W[βAla]ERWRRRL[S5]LCR[S5]HHSTCEAR[1Nal] (staple 10-14; cysteine pairing not given here) [SAHM1-51]
24,610,Ac-W[βAla]ERWRRRL[S5]LCR[S5]HHST[I_N]EARY (staple 10-14; reading uncertain) [SAHM1-52]
25,450,Ac-W[βAla]ERWRRRL[S5]YFR[S5]HHST[dPhe(F5)]EARY (staple 10-14) [SAHM1-60]
26,440,Ac-W[βAla]ERWRRRL[S5]YFR[S5]HHSTCEAR[1Nal] (staple 10-14) [SAHM1-61]
27,320,"Ac-W[βAla]ERWRRRI[S5]YFR[S5]HHST[dPhe(F5)]EAR[1Nal] (staple 10-14) [SAHM1-62 (E21-Y41 scaffold with L23W, L29Y, C30F, C37 D-pentafluoro-Phe and Y41 1-naphthylalanine)]"

# Biological target: equimolar RAMANK1-CSL complex (human) (UniProt P46531)
# Test: SPR (Biacore 3000), peptide immobilised on a streptavidin chip, equimolar RAMANK1 and CSL injected; bio-SAHM1, stapled peptide
row,Kd [nM],Molecule
1,100,"ERLRRRI[S5]LCR[S5]HHST (peptide, UniProt Q92585 21-36, looked up, staple 8-12; not fully specified (N-terminus); also: biotin label, linker not described) [Bio-SAHM1 (biotinylated stapled MAML1 E21-T36 peptide)]"

# Biological target: equimolar RAMANK1-CSL complex (human) (UniProt P46531)
# Test: SPR (Biacore 3000), peptide immobilised on a streptavidin chip, equimolar RAMANK1 and CSL injected; bio-sdnMAML1, residues 16-70
row,Kd [nM],Molecule
1,40,"synthetic, biotinylated dnMAML1 (Bio-sdnMAML1, residues 16-70) (from UniProt Q92585 16-70) (peptide)"

# Biological target: equimolar RAMANK1-CSL complex (human) (UniProt P46531)
# Test: SPR (Biacore 3000), peptide immobilised on a streptavidin chip, equimolar RAMANK1 and CSL injected; bio-nt-sdnMAML1, residues 16-45
row,Kd [nM],Molecule
1,400,"bio-nt-sdnMAML1 (residues 16-45), N-terminal helix of dnMAML1 (from UniProt Q92585 16-45) (peptide)"
